Laboratory results reported in the supplement of paper PMC7877785.
± gives the uncertainty stated by the source.

Assay: self-splicing fitness, log relative to wild type (ln ratio); higher = more splicing; Tetrahymena group I intron in knt gene, E. coli kanamycin selection, DiMSum; sequences stand for … in CUCUCU…GGAGGGAAAAGUUAUCAGGCAUGCACCUGGUAGCUAGUCUUUAAACCAAUAGAUUGCAUCGGUUUAAAAGGCAAGACCGUCAAAUUGCGGGAAAGGGGUCAACAGCCGUUCAGUACCAAGUCUCAGGGGAAACUUUGAGAUGGCCUUGCAAAGGGUAUGGUAAUAAGCUGACGGACAUGGUCCUAACCACGCAGCCAAGUCCUAAGUCAACAGAUCUUCUGUUGAUAUGGAUGCAGUUCACAGACUAAAUGUCGGUCGGGGAAGAUGUAUUCUUCUCAUAAGAUAUAGUCGGACCUCUCCUUAAUGGGAGCUAGCGGAUGAAGUGAUGCAACACUGGAGCCGCUGGGAACUAAUUUGUAUGCGAAAGUAUAUUGAUUAGUUUUGGAGUACUCGUGGUCG
How it was run: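 Pooled colonies went to amplicon sequencing on an Illumina HiSeq 2500 after six replicate transformations. The plates were LB agar with 100 μg/mL carbenicillin, 50 μM IPTG and 0.2% rhamnose, with or without 25 μg/mL kanamycin, incubated overnight at 37°C or 30°C. The E. coli BL21(DE3) library had all eight P1ex-region intron nucleotides randomised, the intron placed in the knt kanamycin-resistance gene on pET-22b(+). DiMSum fitness is the error-weighted combination of replicate fold changes, kanamycin against none, normalised to wild type.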

Sequence	self-splicing fitness (ln) (30 °C)	self-splicing fitness (ln) (37 °C)
UAAGAGCAAUAUUACGAUGG	-3.51 ± 0.21	-1.68 ± 0.16
UAAGAGCAAUAUUACGAUGU	-4.13 ± 0.26	-1.82 ± 0.2
UAAGAGCAAUAUUACGCACA		-1.42 ± 0.33
UAAGAGCAAUAUUACGCCGC	-2.81 ± 0.41	
UAAGAGCAAUAUUACGCGUU		-2.04 ± 0.33
UAAGAGCAAUAUUACGCUUU	-2.81 ± 0.18	-1.85 ± 0.31
UAAGAGCAAUAUUACGUAAG	-3.02 ± 0.2	-2.1 ± 0.21
UAAGAGCAAUAUUACGUAUU	-4.58 ± 0.34	-2.02 ± 0.2
UAAGAGCAAUAUUACGUCAG	-3.04 ± 0.25	-2.33 ± 0.33
UAAGAGCAAUAUUACGUUAA	-3.21 ± 0.22	-2.3 ± 0.2
UAAGAGCAAUAUUACGUUCA	-1.29 ± 0.13	-0.735 ± 0.14
UAAGAGCAAUAUUACGUUUU	-3.31 ± 0.15	-3.27 ± 0.2
UAAUAGCAAUAUUACGACCG	-0.0649 ± 0.15	0.638 ± 0.17
UAAUAGCAAUAUUACGAUAG	-2.06 ± 0.27	-2.99 ± 0.38
UAAUAGCAAUAUUACGAUGG	-3.31 ± 0.16	-1.18 ± 0.13
UAAUAGCAAUAUUACGAUUC		-2.05 ± 0.23
UAAUAGCAAUAUUACGCACC	-2.04 ± 0.21	-0.918 ± 0.24
UAAUAGCAAUAUUACGCAUU	-2.83 ± 0.21	-2.15 ± 0.28
UAAUAGCAAUAUUACGCGCA	-1.13 ± 0.086	0.129 ± 0.1
UAAUAGCAAUAUUACGCGGU	-3 ± 0.31	-2.29 ± 0.35

Sequence	self-splicing fitness (ln) (30 °C)	self-splicing fitness (ln) (37 °C)
UAAUAGCAAUAUUACGCGUU	-4.21 ± 0.17	-2.66 ± 0.15
UAAUAGCAAUAUUACGCUCA	-0.0964 ± 0.088	-0.235 ± 0.096
UAAUAGCAAUAUUACGCUUG	-0.7 ± 0.082	-0.621 ± 0.096
UAAUAGCAAUAUUACGGAUC		-2.05 ± 0.41
UAAUAGCAAUAUUACGGCGA	-1.6 ± 0.21	-0.266 ± 0.22
UAAUAGCAAUAUUACGGGGG	-3.12 ± 0.19	-3.37 ± 0.39
UAAUAGCAAUAUUACGGUCA	-0.412 ± 0.11	-0.333 ± 0.11
UAAUAGCAAUAUUACGGUGG	-4.08 ± 0.25	-1.12 ± 0.12
UAAUAGCAAUAUUACGGUUC	-2.91 ± 0.29	
UAAUAGCAAUAUUACGUCAC	-3.93 ± 0.26	0.0385 ± 0.19
UAAUAGCAAUAUUACGUCAU	-4 ± 0.28	-2.52 ± 0.22
UAAUAGCAAUAUUACGUUCU	-2.47 ± 0.29	-1.9 ± 0.32
UAAUAGCAAUAUUACGUUUU	-4.25 ± 0.29	-2.73 ± 0.17
UACAAGCAAUAUUACGAAAU	-2.52 ± 0.16	-3.01 ± 0.29
UACAAGCAAUAUUACGAUAG	-2.16 ± 0.093	-0.848 ± 0.089
UACAAGCAAUAUUACGAUCU	-0.941 ± 0.075	-0.61 ± 0.077
UACAAGCAAUAUUACGAUUC	-3.23 ± 0.13	-2.04 ± 0.16
UACAAGCAAUAUUACGAUUG	-3.18 ± 0.17	-1.8 ± 0.17
UACAAGCAAUAUUACGCAAG	-2.81 ± 0.12	-1.6 ± 0.11
UACAAGCAAUAUUACGCAGA	-2.31 ± 0.15	-1.29 ± 0.1
